Source: patent US7670820B2, “Chitinase and uses thereof” (Academia Sinica, priority 2007, dated 2010)
Values joined by “and” are separate entries in the source; they are usually repeats but may differ in a detail not shown here. Identical values can stand only once. Like-named read-outs stand apart in the source and are kept apart here.

How the values were obtained:
CpCHI = format: biochemical, Carica papaya
Method: (§1) Chitinase activity was generally measured using glycol chitin as a substrate. All enzymes other than CpCHI, were purchased from Promega (Madison, Wis.). Chemicals were purchased from Merck (Darmstadt, Germany). An enzyme solution (10 μL) was added to 100 μL of 1% (w/v) glycolchitin dissolved in 90 μL of a sodium acetate buffer (100 mM, pH 5.0), and was incubated at 30° C. for 3 hours. The reducing end group produced was measured calorimetrically at 420 nm with 200 μL of a potassium ferricyanide (K3Fe(CN)6) reagent according to the method descried in Boller et al., 1983, Planta. 157, 22-31. Reduced sugar levels were determined relative to N-acetyl-β-D-glucosamine standards of 0-150 μg mL^−1. One unit of chitinase activity is defined as the amount of enzyme producing 1 μmol reducing sugar per minute at 30° C. Substrate and enzyme blanks were also prepared in which the enzyme or substrate was incubated with a buffer. All measured values of absorbency were normalized against appropriate blank absorbencies. In this example, collodial chitin and chitosan were also used as substrate for subtract specificity analysis.
To analyze the effect of metals and other factors on chitinase activity, the enzyme was preincubated with a 10 mM of different metals and inhibitors. After 30 minutes, the remaining chitinase activity was measured in the manner described above.

[1] = Chitinase activity with glycol chitin as substrate (colorimetric reducing-sugar assay); format: biochemical
Method: as §1
The optimal pH of the chitiolytic activity of CpCHI was determined by incubating the purified recombinant enzyme (5 μg) at different pH (3-10) at 30° C. for 3 hours using glycol chitin as the substrate. An acetate buffer (100 mM) was used for pH 3-5, a phosphate buffer (100 mM) for pH 6˜7, a Tris-HCl buffer (100 mM) for pH 8, and a glycine-NaOH buffer for pH 9 and 10. The optimal temperature was determined by incubating the purified chitinase (5 μg) at different temperatures (10˜90° C.) at pH 6.0 for 3 hours using glycol chitin as the substrate. The highest activity was calculated as relative activity (RA) 100%.

[2] = Chitinase substrate specificity, collodial chitin as substrate; format: biochemical; settings: relative to glycol chitin
Method: as §1

[3] = Chitinase substrate specificity, chitosan as substrate; format: biochemical; settings: relative to glycol chitin
Method: as §1

[4] = format: physicochemical
Method: The pH stability of recombinant CpCHI was determined. Briefly, purified recombinant CpCHI was incubated in buffers with pH from 3.0 to 10.0 at 30° C. for 3 hours. The residual activity was then determined at a standard condition (30° C. for 3 hours at pH 6.0). The results were averaged from three independent experiments.
The stability of recombinant CpCHI during long-term storage was examined. […] The enzyme retained more than 60% of its activity for 3 weeks at 30° C. and more than 50% activity for 3 weeks at 37° C. The results were also averaged from three independent experiments.

[5] = HPLC analysis of chitin hydrolysis by CpCHI; format: biochemical
Method: Chitin hydrolysis was carried out in a phosphate buffer (100 mM, pH 6) at 30° C. with shaking. The concentrations of chitinase and glycol chitin suspension were 750 ng μL^−1 and 100 μg mL^−1, respectively. The reactions were quenched with 10% (v/v) acetic acid. […] The column was connected to an Agilent Technologies 1100 series HPLC system under the control of a Thermo Finnigan LCQ DECA electrospray mass spectrometer. The mass-to-charge ratios (m/z) of the expected oligosaccharides were selected as follows: Glc-NAc (221.9), (GlcNAc)2 (425.5), (GlcNAc)3 (627.6), (GlcNAc)4 (830.8), (GlcNAc)5 (1034.0), (GlcNAc)6 (1237.2), and (GlcNAc)7 (1440.0).

Phytophthora sp. = experiment: Antifungal activity, growth / hypha extension inhibition; format: cell-based
Method: (§2) The antifungal activity of recombinant chitinase protein was assessed by the hypha extension inhibition assay. Sclerotium rolfsii and Phytophthora sp. were provided from Hualien District Agricultural Research and Extension Station. Rhizoctonia solani and Alternaria brassicicola were provided by Dr. Jenn-Wen Hung of the Department of Plant Pathology of National Chung-Hsing University. A disc of each strain of fungus was removed from an actively growing fungal culture, and placed in the center of a fresh potato dextrose agar plate. After incubation at room temperature for 3 to 4 days, the recombinant chitinase or a control buffer (10 mM Tris-HCl pH7.5, 1 mM EDTA) were separately applied into a pool, which was 1 cm from the perimeter. The inhibition of the hypha extension was detected as a crescent-shaped zone of inhibition around the peripheral disc as the fungus grew out from the central disc.
(§3) The effects of recombinant CpCHI on the growth of Phytophthora sp., Sclerotium rolsii, and Rhizoctonia solani were examined using standard methods. Disease resistance assays were carried out using detached leaves of cabbage, bell pepper, and tomato that were inoculated with each of the pathogens. Cabbage (Brassica oleracea), bell pepper (Capsicam annuum), and tomato (Solanum lycopersicum) were obtained from Known-You Seed CO., LTD. An agar plug containing the pathogen was placed on the center of leaves. At day 1 day after inoculation, the detached leaves began to show lesions surrounded by yellow halos. Then, different solutions, including H2O, a TE buffer (10 mM Tris-HCl pH 7.5, 1 mM EDTA), or 5, 10, 15 μM CpCHI in the TE buffer was sprayed onto the leaves. At day 4 after inoculation, the pathogenesis inhibition by 5, 10, or 15 μM CpCHI was about 37%, 83%, and 98%, respectively (Table 3). […] Also, recombinant CpCHI inhibited the growth of these three fungi with as little as 15 μM, and the inhibited activity lasted for 7 days.

Rhizoctonia solani = experiment: as above; format: cell-based
Method: as §2, §3

Sclerotium rolfsii [6] = experiment: as above; format: cell-based
Method: as §2, §3

Sclerotium rolfsii [7] = experiment: Disease resistance assay on detached leaves; format: in vivo; settings: for pathogenesis inhibition: day 4 after inoculation
Method: as §3

Alternaria brassicicola = experiment: Inhibition of spore germination; format: cell-based; settings: 24° C. for 24 hours
Method: Assays were also carried out to examine effects of CpCHI on Alternaria brassicicola, a fungus isolated from cabbages. The fungus was cultured in potato dextrose agar (DIFCO) for 2 weeks. After sporulation, the spores of the fungus were suspended in water to a concentration of 10^4 spores mL^−1. A fungal spore stock (approximately 500 spores) was cultured at 24° C. for 24 hours in the following solutions: (A) H2O, (B) TE buffer (10 mM Tris-HCl pH 7.5, 1 mM EDTA), (C) 5 μM CpCHI in TE buffer, and (D) 10 μM CpCHI in TE buffer. The inhibition of spore germination was examined under a light microscope at 200× amplification (Li et al., 2003, Plant Cell Physiol. 44, 1162-1167). The percentage of germination was calculated from 10 different observations. All experiments were conducted in triplicates.

E. coli AD494 = experiment: Antibacterial activity, growth suppression (density at 600 nm); format: cell-based; settings: E. coli AD494, LB medium
Method: (§4) Experiments were conducted to examine recombinant CpCHI's ability to suppress the growth of E. coli ED2566 or E. coli AD494. Briefly, the E. coli strain was grown at 37° C. in an LB medium with shaking at 225 rpm overnight. Then, the overnight culture was 100× diluted in a fresh LB medium containing 1 μM, 1.5 μM, 2 μM, 2.5 μM, or 3 μM CpCHI. A TE buffer (10 mM Tris-HCl pH7.5, 1 mM EDTA) was used as a control. Changes in density at 600 nm were monitored. The assays were conducts in triplicates and the average were recorded to examine the inhibition of bacterial growth.

E. coli ED2566 = experiment: as above; format: cell-based; settings: E. coli ED2566, LB medium
Method: as §4

[8] = enzyme preincubated 30 minutes with 10 mM reagent

O=C(O)CN(CCN(CC(=O)O)CC(=O)O)CC(=O)O [EDTA]
Relative activity (%) of CpCHI (CpCHI): 93.33 ± 3.06%
reduction / inhibition of CpCHI activity (CpCHI): 6.67%

[Cl][Hg][Cl] [HgCl2]
reduction / inhibition of CpCHI activity (CpCHI; 10 mM): completely
Relative activity (%) of CpCHI (CpCHI; [8]): 0%

[Cl-].[K+] [KCl]
reduction / inhibition of CpCHI activity (CpCHI; 10 mM): 7.67%
Relative activity (%) of CpCHI (CpCHI; [8]): 92.33 ± 1.53%

O=S(=O)([O-])[O-].[Zn+2] [ZnSO4]
reduction / inhibition of CpCHI activity (CpCHI; 10 mM): 62.0%
Relative activity (%) of CpCHI (CpCHI; [8]): 38.00 ± 3.61%

[Cl][Mn][Cl] [MnCl2]
reduction / inhibition of CpCHI activity (CpCHI; 10 mM): 64.7%
Relative activity (%) of CpCHI (CpCHI; [8]): 35.33 ± 3.06%

O=[N+]([O-])[O-].[Ag+] [AgNO3]
reduction / inhibition of CpCHI activity (CpCHI; 10 mM): 16.33%
Relative activity (%) of CpCHI (CpCHI; [8]): 83.67 ± 2.52%

O=S(=O)([O-])[O-].[Cu+2] [CuSO4]
reduction / inhibition of CpCHI activity (CpCHI; 10 mM): 60%
Relative activity (%) of CpCHI (CpCHI; [8]): 40.00 ± 7.2%

[Cl][Fe]([Cl])[Cl] [FeCl3]
reduction / inhibition of CpCHI activity (CpCHI; 10 mM): 29.33%
Relative activity (%) of CpCHI (CpCHI; [8]): 70.67 ± 3.06%

B1: CpCHI: novel class IV chitinase from papaya (Carica papaya) fruit, mature form expressed in E. coli and purified on Ni-NTA (protein, listed as Carica papaya)
chain: QNCGCAPNLCCSRFGFCGQGEAYCGEGCREGPCNKPSPTPGGGSSLAEIVTPDFFNGIINQAAAGCAGKSFCSRGGFLDAANSFPEFGKLGSVDDSKREIAAFFAHVTHETGHFCHIEEINGASHDYCDEGNTQYPCAPGKNYFGRGPIQLTWNYNYGAAGDALRLNLLGSPEMVARDAAVSFKTALWFWMKNVRPVINQGFGATIRAINGAIECNGGNPGTVQARIGYYRDYCAKFGVAPGENLSC
broad pH optima ([1]; 30° C., 3 hours, glycol chitin): 5.0-9.0
optimal pH for the enzyme activity ([1]; 30° C., 3 hours, glycol chitin): 6.0
optimal temperature for the enzyme activity ([1]; pH 6.0, 3 hours, glycol chitin): 30 °C
specific activity ([1]; recombinant protein after dialysis, spectrophotometric assay, glycol chitin): 14.8 U mg^−1
Relative activity toward glycol chitin ([1]; substrate glycol chitin): 100%
activity maintained at different temperatures ([1]; temperatures between 10-50° C.): at least 80%
Relative activity toward collodial chitin [2]: 59% and 58.67 ± 5.03%
Relative activity toward chitosan [3]: 11% and 11.33 ± 2.52%
activity retained during long-term storage ([4]; 3 weeks at 30° C.): more than 60%
activity retained during long-term storage ([4]; 3 weeks at 37° C.): more than 50%
hydrolyzed products of glycol chitin ([5]; after 1 hour): (GlcNAc)3
hydrolyzed products of glycol chitin ([5]; after 2 hours): (GlcNAc)3, (GlcNAc)2, and (GlcNAc)
hydrolyzed products of glycol chitin ([5]; final products): (GlcNAc)2 and (GlcNAc)
antifungal activity (Phytophthora sp.): great antifungal activity
concentration that inhibited growth (Phytophthora sp.): 15 µM
duration of the inhibited activity (Phytophthora sp.; 15 μM): 7 days
antifungal activity (Rhizoctonia solani): great antifungal activity
concentration that inhibited growth (Rhizoctonia solani): 15 µM
duration of the inhibited activity (Rhizoctonia solani; 15 μM): 7 days
antifungal activity (Sclerotium rolfsii [6]): great antifungal activity
concentration that inhibited growth (Sclerotium rolfsii [6]): 15 µM
duration of the inhibited activity (Sclerotium rolfsii [6]; 15 μM): 7 days
pathogenesis inhibition (Sclerotium rolfsii [7]; 5 μM): about 37%
pathogenesis inhibition (Sclerotium rolfsii [7]; 10 μM): ~83%
pathogenesis inhibition (Sclerotium rolfsii [7]; 15 μM): ~98%
Percentage of the symptom appearing (Sclerotium rolfsii [7]; Cabbage detached leaves, 5 μM sprayed): 55.33 ± 6.11%
Percentage of the symptom appearing (Sclerotium rolfsii [7]; Cabbage detached leaves, 10 μM sprayed): 14.33 ± 5.13%
Percentage of the symptom appearing (Sclerotium rolfsii [7]; Cabbage detached leaves, 15 μM sprayed): 1.66 ± 2.88%
Percentage of the symptom appearing (Sclerotium rolfsii [7]; bell pepper detached leaves, 5 μM sprayed): 66.67 ± 7.34%
Percentage of the symptom appearing (Sclerotium rolfsii [7]; bell pepper detached leaves, 10 μM sprayed): 23.33 ± 7.64%
Percentage of the symptom appearing (Sclerotium rolfsii [7]; bell pepper detached leaves, 15 μM sprayed): 3.33 ± 2.77%
Percentage of the symptom appearing (Sclerotium rolfsii [7]; tomato detached leaves, 5 μM sprayed): 65 ± 15%
Percentage of the symptom appearing (Sclerotium rolfsii [7]; tomato detached leaves, 10 μM sprayed): 13.33 ± 10.41%
Percentage of the symptom appearing (Sclerotium rolfsii [7]; tomato detached leaves, 15 μM sprayed): 1.66 ± 1.32%
inhibition of spore germination (Alternaria brassicicola; 5 μM): 50%
inhibition of spore germination (Alternaria brassicicola; 10 μM): 98%
IC50 (E. coli AD494): ~2500 nM
IC50 (E. coli ED2566): ~2500 nM
